From paper doi:10.1101/2021.08.24.457482 (bioRxiv, 2021)

B2: Sema3A fused in frame with alkaline phosphatase (sema3A-AP) (ligand)
chain: NYQNGKNNVPRLKLSYKEMLESNNVITFNGLANSSSYHTFLLDEERSRLYVGAKDHIFSFDLVNIKDFQKIVWPVSYTRRDECKWAGKDILKECANFIKVLKAYNQTHLYACGTGAFHPICTYIEIGHHPEDNIFKLENSHFENGRGKSPYDPKLLTASLLIDGELYSGTAADFMGRDFAIFRTLGHHHPIRTEQHDSRWLNDPKFISAHLISESDNPEDDKVYFFFRENAIDGEHSGKATHARIGQICKNDFGGHRSLVNKWTTFLKARLICSVPGPNGIDTHFDELQDVFLMNFKDPKNPVVYGVFTTSSNIFKGSAVCMYSMSDVRRVFLGPYAHRDGPNYQWVPYQGRVPYPRPGTCPSKTFGGFDSTKDLPDDVITFARSHPAMYNPVFPMNNRPIVIKTDVNYQFTQIVVDRVDAEDGQYDVMFIGTDVGTVLKVVSIPKETWYDLEEVLLEEMTVFREPTAISAMELSTKQQQLYIGSTAGVAQLPLHRCDIYGKACAECCLARDPYCAWDGSACSRYFPTAKRRTRRQDIRNGDPLTHCSDLHHDNHHGHSPEERIIYGVENSSTFLECSPKSQRALVYWQFQRRNEERKEEIRVDDHIIRTDQGLLLRSLQQKDSGNYLCHAVEHGFIQTLLKVTLEVIDTEHLEELLHKDDDGDGSKTKEMSNSMTPSQKVWYRDFMQLINHPNLNTMDEFCEQVWKRDRKQRRQRPGHTPGNSNKWKHLQENKKGRNRRTHEFERAPRSV

What was measured:
[1] = biological target: the molecule itself; assay: SDS-PAGE with and without reducing agent, western blot
[2] = biological target: neuropilin-1 (NRP-1) on parental U87MG cells (human (endogenous in U87MG), UniProt O14786 22-923); assay: alkaline phosphatase fusion binding to cells
neuropilin-1 (NRP-1) on parental U87MG cells, sequence (O14786 22-923): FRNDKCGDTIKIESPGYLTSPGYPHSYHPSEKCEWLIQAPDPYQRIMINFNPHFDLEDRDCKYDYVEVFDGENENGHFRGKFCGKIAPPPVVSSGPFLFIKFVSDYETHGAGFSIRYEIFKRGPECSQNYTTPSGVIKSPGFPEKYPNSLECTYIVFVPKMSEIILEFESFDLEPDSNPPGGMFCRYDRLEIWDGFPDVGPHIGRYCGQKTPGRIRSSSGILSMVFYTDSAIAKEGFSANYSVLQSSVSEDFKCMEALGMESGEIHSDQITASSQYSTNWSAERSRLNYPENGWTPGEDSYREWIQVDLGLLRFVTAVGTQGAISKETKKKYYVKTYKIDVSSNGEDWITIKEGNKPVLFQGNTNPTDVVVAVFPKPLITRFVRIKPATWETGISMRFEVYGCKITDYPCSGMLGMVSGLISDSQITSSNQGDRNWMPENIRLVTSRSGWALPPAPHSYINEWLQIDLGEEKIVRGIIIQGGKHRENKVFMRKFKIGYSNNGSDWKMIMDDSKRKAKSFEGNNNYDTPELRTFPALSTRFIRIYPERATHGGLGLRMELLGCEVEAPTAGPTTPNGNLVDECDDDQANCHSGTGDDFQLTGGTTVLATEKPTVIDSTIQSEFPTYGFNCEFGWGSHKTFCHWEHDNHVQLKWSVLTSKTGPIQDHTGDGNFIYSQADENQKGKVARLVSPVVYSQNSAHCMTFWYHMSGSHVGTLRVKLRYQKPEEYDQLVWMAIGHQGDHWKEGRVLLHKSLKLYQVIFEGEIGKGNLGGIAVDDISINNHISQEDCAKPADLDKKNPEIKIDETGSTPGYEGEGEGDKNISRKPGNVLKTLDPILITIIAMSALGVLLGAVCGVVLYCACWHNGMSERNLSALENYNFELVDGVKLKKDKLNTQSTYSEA

[3] = biological target: B2; assay: alkaline phosphatase fusion binding to cells

B1: modified truncated sema3A (T-sema3A) (ligand)
chain: NYQNGKNNVPRLKLSYKEMLESNNVITFNGLANSSSYHTFLLDEERSRLYVGAKDHIFSFDLVNIKDFQKIVWPVSYTRRDECKWAGKDILKECANFIKVLKAYNQTHLYACGTGAFHPICTYIEIGHHPEDNIFKLENSHFENGRGKSPYDPKLLTASLLIDGELYSGTAADFMGRDFAIFRTLGHHHPIRTEQHDSRWLNDPKFISAHLISESDNPEDDKVYFFFRENAIDGEHCGKATHARIGQICKNDFGGHRSLVNKWTTFLKARLICSVPGPNGIDTHFDELQDVFLMNFKDPKNPVVYGVFTTSSNIFKGSAVCMYSMSDVRRVFLGPYAHRDGPNYQWVPYQGRVPYPRPGTCPSKTFGGFDSTKDLPDDVITFARSHPAMYNPVFPMNNRPIVIKTDVNYQFTQIVVDRVDAEDGQYDVMFIGTDVGTVLKVVSIPKETWYDLEEVLLEEMTVFREPTAISAMELSTKQQQLYIGSTAGVAQLPLHR
Which “stoichiometry N” value [1] does the source give for B1 here?
Its value is 2.

B2 was tested. Which Kd [2] did it give?
Its Kd is about 4.73 nM.

B3: CD72 fused with a V5 epitope tag, expressed in U87MG-ΔNRP-1-CD72+ cells (receptor)
chain: MAEAITYADLRFVKAPLKKSISSRLGQDPGADDDGEITYENVQVPAVLGVPSSLASSVLGDKAAVKSEQPTASWRAVTSPAVGRILPCRTTCLRYLLLGLLLTCLLLGVTAICLGVRYLQVSQQLQQTNRVLEVTNSSLRQQLRLKITQLGQSAEDLQGSRRELAQSQEALQVEQRAHQAAEGQLQACQADRQKTKETLQSEEQQRRALEQKLSNMENRLKPFFTCGSADTCCPSGWIMHQKSCFYISLTSKNWQESQKQCETLSSKLATFSEIYPQSHSYYFLNSLLPNGGSGNSYWTGLSSNKDWKLTDDTQRTRTYAQSSKCNKVHKTWSWWTLESESCRSSLPYICEMTAFRFPD
How did the Kd [3] turn out when B3 was run?
The Kd was about 7.62 nM.
